Substrate in this data set: CC(=O)N[C@H]1[C@@H](OP(=O)(O)OP(=O)(O)OC[C@H]2O[C@@H](n3ccc(=O)[nH]c3=O)[C@H](O)[C@@H]2O)O[C@H](CO)[C@@H](O)[C@@H]1O
Briefly: purified protein. It counts as biochemical, Sulfolobus acidocaldarius. As to conditions: 0.5 mM acceptor-2 (phenyl-O-C11H22-PP-GlcNAc), TBS with 5 mM MgCl2, pH 7.5, 60 °C, 10 hr, UDP-GlcNAc 0.5-12 mM.

B1: Agl24 (Saci1262) (Sulfolobus acidocaldarius DSM 639) (protein)
chain: MIDNPLLIIASGGGHTGFARAIAEYLPFKPDFVIPENDRFSKDMLLDYARKLYYVKKGKDPGQGNIVLMRNFLKIIIESGKIPKYLATIATGSNHSLIPAMFQKIKGSALYVTESQDRIITRGKTVSVLSKFSRHVFLHWNEQKGLYDNGVVVGPIVEKPKYKSENKGYILVTTGSMGFKKLFDSLLNLRGNYKFVIQTGKVDPTPYIEKKPDWSFFSFDKDIERYIANAELVITHQGKTAMESVVMYGKPTIIVYNKDWKSATTKQDTILYSKILGATFLDDPSTWDSIKVLEDSIQNVRKPNQFEIGTPKLIDIILSELAEFLRE
notes: full length (327 residues), C-terminal TEV site-GFP-His8 fusion (pWaldo, plasmid pHD0499), tags kept; E. coli BL21 membranes, DDM-solubilised, Ni purified
In general, Km refers to the substrate concentration at which the rate is half of its maximum. Take B1: the Km came to 1370 ± 130 µM.

Source of the values: paper PMC8993221, “Agl24 is an ancient archaeal homolog of the eukaryotic N-glycan chitobiose synthesis enzymes” (eLife, 2022).
